Source: publication PMC9482650, “Quantitative fragmentomics allow affinity mapping of interactomes” (Nature Communications, 2022)

What was measured:
Experiment in all cases: holdup assay
Parameters in all cases: key: below the threshold = too weak to quantify, mostly under pKd 3.1 to 4
APBA1_2, Q02410 = target: T1, APBA1_2, Q02410
T1 sequence (Q02410 742-832, limits assumed, looked up): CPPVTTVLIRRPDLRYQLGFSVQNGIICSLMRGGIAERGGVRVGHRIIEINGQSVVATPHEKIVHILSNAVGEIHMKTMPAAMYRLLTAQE

APBA3_1, O96018 = target: T2, APBA3_1, O96018
T2 sequence (O96018 389-490, limits assumed, looked up): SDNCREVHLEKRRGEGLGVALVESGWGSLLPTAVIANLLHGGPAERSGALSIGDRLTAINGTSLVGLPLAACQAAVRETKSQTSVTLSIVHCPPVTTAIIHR

CASK, O14936 = target: CASK, O14936
DFNB31_1, Q9P202 = target: T3, DFNB31_1, Q9P202
T3 sequence (Q9P202 135-233, limits assumed, looked up): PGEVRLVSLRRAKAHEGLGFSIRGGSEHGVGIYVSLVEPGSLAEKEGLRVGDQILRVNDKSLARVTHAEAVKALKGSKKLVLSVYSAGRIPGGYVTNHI

DLG1_2, Q12959 = target: DLG1_2, Q12959
DLG3_2, Q92796 = target: T4, DLG3_2, Q92796
T4 sequence (Q92796 221-321, limits assumed, looked up): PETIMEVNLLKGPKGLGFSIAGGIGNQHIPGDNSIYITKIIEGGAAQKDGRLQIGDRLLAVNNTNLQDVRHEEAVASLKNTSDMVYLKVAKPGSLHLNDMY

FRMPD2_2, Q68DX3 = target: FRMPD2_2, Q68DX3
FRMPD2_3, Q68DX3 = target: FRMPD2_3, Q68DX3
GIPC2, Q8TF65 = target: GIPC2, Q8TF65
GRIP1_3, Q9Y3R0 = target: T5, GRIP1_3, Q9Y3R0
T5 sequence (Q9Y3R0 247-346, limits assumed, looked up): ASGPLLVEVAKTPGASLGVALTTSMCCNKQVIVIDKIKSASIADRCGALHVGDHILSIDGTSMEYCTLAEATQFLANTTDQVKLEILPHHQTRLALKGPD

GRIP1_4, Q9Y3R0 = target: T6, GRIP1_4, Q9Y3R0
T6 sequence (Q9Y3R0 467-571, limits assumed, looked up): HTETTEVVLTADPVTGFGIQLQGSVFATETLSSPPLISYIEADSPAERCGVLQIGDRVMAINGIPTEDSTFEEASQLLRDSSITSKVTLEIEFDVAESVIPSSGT

Inadl_4, Q8NI35 = target: Inadl_4, Q8NI35
Inadl_6, Q8NI35 = target: Inadl_6, Q8NI35
LAP2, Q96RT1 = target: LAP2, Q96RT1
MAGI2_4, Q86UL8 = target: MAGI2_4, Q86UL8
MPDZ_12, O75970 = target: T7, MPDZ_12, O75970
T7 sequence (O75970 1857-1958, limits assumed, looked up): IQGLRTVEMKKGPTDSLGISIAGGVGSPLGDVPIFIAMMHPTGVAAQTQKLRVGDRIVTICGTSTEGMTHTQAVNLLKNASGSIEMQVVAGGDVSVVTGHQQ

MPP6, Q9NZW5 = target: T8, MPP6, Q9NZW5
T8 sequence (Q9NZW5 125-219, limits assumed, looked up): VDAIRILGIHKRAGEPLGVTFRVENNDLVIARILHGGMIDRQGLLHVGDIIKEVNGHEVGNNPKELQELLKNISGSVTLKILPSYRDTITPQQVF

NHERF2_2, Q15599 = target: NHERF2_2, Q15599
PARD3B_1, Q8TEW8 = target: T9, PARD3B_1, Q8TEW8
T9 sequence (Q8TEW8 196-299, limits assumed, looked up): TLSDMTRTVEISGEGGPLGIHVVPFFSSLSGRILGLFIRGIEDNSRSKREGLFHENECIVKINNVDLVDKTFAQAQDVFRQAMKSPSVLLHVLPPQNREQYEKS

PCLO, Q9Y6V0 = target: T10, PCLO, Q9Y6V0
T10 sequence (Q9Y6V0 4491-4600, limits assumed, looked up): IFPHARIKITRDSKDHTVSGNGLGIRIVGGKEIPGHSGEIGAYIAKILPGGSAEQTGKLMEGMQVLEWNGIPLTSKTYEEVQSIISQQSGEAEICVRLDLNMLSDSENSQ

PDZD7_3, Q9H5P4 = target: T11, PDZD7_3, Q9H5P4
T11 sequence (Q9H5P4 857-944, limits assumed, looked up): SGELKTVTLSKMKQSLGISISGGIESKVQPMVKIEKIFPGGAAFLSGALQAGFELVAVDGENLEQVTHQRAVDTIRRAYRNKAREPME

PTPN13_1, Q12923 = target: T12, PTPN13_1, Q12923
T12 sequence (Q12923 1088-1188, limits assumed, looked up): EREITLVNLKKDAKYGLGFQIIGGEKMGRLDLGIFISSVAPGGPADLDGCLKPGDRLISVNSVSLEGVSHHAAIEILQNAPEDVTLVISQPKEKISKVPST

SHANK1, Q9Y566 = target: T13, SHANK1, Q9Y566
T13 sequence (Q9Y566 658-767, limits assumed, looked up): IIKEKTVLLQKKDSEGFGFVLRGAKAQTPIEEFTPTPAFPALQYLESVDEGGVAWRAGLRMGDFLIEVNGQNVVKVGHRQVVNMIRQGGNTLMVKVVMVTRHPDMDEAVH

TJP1_2, Q07157 = target: TJP1_2, Q07157
[1] = plain residues with an end cap or a label only (N-terminal biotin on a linker: ahx)
[2] = plain residues with an end cap or a label only (N-terminal biotin on a linker: ttds)
[3] = plain residues with an end cap or a label only (N-terminal biotin on a linker: ado-ado)

Chain of LAP2, Q96RT1 (Q96RT1 other isoform, or with tags, fused parts or gaps): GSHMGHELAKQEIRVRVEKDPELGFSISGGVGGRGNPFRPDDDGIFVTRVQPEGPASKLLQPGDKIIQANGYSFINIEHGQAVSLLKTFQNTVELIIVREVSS
Chain of CASK, O14936 (O14936 487-570): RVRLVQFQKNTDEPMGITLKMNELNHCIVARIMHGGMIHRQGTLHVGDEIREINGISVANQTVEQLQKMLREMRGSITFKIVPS
Chain of MAGI2_4, Q86UL8 (Q86UL8 772-865): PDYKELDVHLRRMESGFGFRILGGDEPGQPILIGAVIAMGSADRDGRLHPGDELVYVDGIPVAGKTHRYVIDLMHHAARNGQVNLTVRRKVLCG
Chain of TJP1_2, Q07157 (Q07157 181-274): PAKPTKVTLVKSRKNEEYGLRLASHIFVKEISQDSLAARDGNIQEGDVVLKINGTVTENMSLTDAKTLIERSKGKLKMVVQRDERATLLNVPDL
Chain of FRMPD2_2, Q68DX3 (Q68DX3 944-1038): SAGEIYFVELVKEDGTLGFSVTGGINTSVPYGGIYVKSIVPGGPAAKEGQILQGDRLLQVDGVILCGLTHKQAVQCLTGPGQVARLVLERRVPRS
Chain of FRMPD2_3, Q68DX3 (Q68DX3 1073-1166): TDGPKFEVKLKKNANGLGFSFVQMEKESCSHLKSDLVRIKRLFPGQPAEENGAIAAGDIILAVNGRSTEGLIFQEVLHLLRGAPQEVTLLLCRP
Chain of Inadl_4, Q8NI35 (Q8NI35 547-651): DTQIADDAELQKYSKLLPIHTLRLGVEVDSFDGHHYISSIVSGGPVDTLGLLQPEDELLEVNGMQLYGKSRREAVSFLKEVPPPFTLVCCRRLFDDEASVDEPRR
Chain of NHERF2_2, Q15599 (Q15599 142-238): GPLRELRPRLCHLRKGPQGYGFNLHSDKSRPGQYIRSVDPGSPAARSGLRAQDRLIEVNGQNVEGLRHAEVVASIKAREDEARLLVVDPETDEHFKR
Chain of DLG1_2, Q12959 (Q12959 314-412): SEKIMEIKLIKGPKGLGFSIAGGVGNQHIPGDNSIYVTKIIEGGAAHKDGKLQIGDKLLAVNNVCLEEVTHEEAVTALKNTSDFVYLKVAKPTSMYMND
Chain of GIPC2, Q8TF65 (Q8TF65 112-203): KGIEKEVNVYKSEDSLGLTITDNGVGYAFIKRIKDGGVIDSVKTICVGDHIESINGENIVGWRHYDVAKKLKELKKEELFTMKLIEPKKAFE
Chain of Inadl_6, Q8NI35 (Q8NI35 1058-1167): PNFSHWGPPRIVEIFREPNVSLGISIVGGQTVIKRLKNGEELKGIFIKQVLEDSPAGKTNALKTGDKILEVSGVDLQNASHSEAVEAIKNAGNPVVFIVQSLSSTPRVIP

NRKREIFSNF [NHERF2, Q15599]
pKd (APBA1_2, Q02410; [1]): below the threshold
pKd (APBA3_1, O96018; [1]): below the threshold
pKd (CASK, O14936; [1]): below the threshold
pKd (DFNB31_1, Q9P202; [1]): below the threshold
pKd (DLG1_2, Q12959; [1]): below the threshold
pKd (DLG3_2, Q92796; [1]): below the threshold
pKd (FRMPD2_2, Q68DX3; [1]): below the threshold
pKd (FRMPD2_3, Q68DX3; [1]): below the threshold
pKd (GIPC2, Q8TF65; [1]): below the threshold
pKd (GRIP1_3, Q9Y3R0; [1]): below the threshold
pKd (GRIP1_4, Q9Y3R0; [1]): below the threshold
pKd (Inadl_4, Q8NI35; [1]): below the threshold
pKd (Inadl_6, Q8NI35; [1]): below the threshold
pKd (LAP2, Q96RT1; [1]): below the threshold
pKd (MAGI2_4, Q86UL8; [1]): below the threshold
pKd (MPDZ_12, O75970; [1]): below the threshold
pKd (MPP6, Q9NZW5; [1]): below the threshold
pKd (NHERF2_2, Q15599; [1]): below the threshold
pKd (PARD3B_1, Q8TEW8; [1]): below the threshold
pKd (PCLO, Q9Y6V0; [1]): below the threshold
pKd (PDZD7_3, Q9H5P4; [1]): below the threshold
pKd (PTPN13_1, Q12923; [1]): below the threshold
pKd (SHANK1, Q9Y566; [1]): below the threshold
pKd (TJP1_2, Q07157; [1]): below the threshold

EVVHTPETSV [SLC16A3, O15427]
pKd (APBA1_2, Q02410; [2]): 4.09
pKd (APBA3_1, O96018; [2]): below the threshold
pKd (CASK, O14936; [2]): below the threshold
pKd (DFNB31_1, Q9P202; [2]): 3.86
pKd (DLG1_2, Q12959; [2]): 4.3
pKd (DLG3_2, Q92796; [2]): 4.08
pKd (FRMPD2_2, Q68DX3; [2]): 4.5
pKd (FRMPD2_3, Q68DX3; [2]): below the threshold
pKd (GIPC2, Q8TF65; [2]): below the threshold
pKd (GRIP1_3, Q9Y3R0; [2]): below the threshold
pKd (GRIP1_4, Q9Y3R0; [2]): below the threshold
pKd (Inadl_4, Q8NI35; [2]): below the threshold
pKd (Inadl_6, Q8NI35; [2]): below the threshold
pKd (LAP2, Q96RT1; [2]): 3.81
pKd (MAGI2_4, Q86UL8; [2]): 3.55
pKd (MPDZ_12, O75970; [2]): below the threshold
pKd (MPP6, Q9NZW5; [2]): below the threshold
pKd (NHERF2_2, Q15599; [2]): below the threshold
pKd (PARD3B_1, Q8TEW8; [2]): below the threshold
pKd (PCLO, Q9Y6V0; [2]): below the threshold
pKd (PDZD7_3, Q9H5P4; [2]): 4.45
pKd (PTPN13_1, Q12923; [2]): below the threshold
pKd (SHANK1, Q9Y566; [2]): below the threshold
pKd (TJP1_2, Q07157; [2]): 3.83

HNAFLSVTTV [PDZRN4, Q6ZMN7]
pKd (APBA1_2, Q02410; [1]): below the threshold
pKd (APBA3_1, O96018; [1]): below the threshold
pKd (CASK, O14936; [1]): below the threshold
pKd (DFNB31_1, Q9P202; [1]): below the threshold
pKd (DLG1_2, Q12959; [1]): 3.52
pKd (DLG3_2, Q92796; [1]): 3.61
pKd (FRMPD2_2, Q68DX3; [1]): below the threshold
pKd (FRMPD2_3, Q68DX3; [1]): below the threshold
pKd (GIPC2, Q8TF65; [1]): below the threshold
pKd (GRIP1_3, Q9Y3R0; [1]): below the threshold
pKd (GRIP1_4, Q9Y3R0; [1]): below the threshold
pKd (Inadl_4, Q8NI35; [1]): below the threshold
pKd (Inadl_6, Q8NI35; [1]): below the threshold
pKd (LAP2, Q96RT1; [1]): below the threshold
pKd (MAGI2_4, Q86UL8; [1]): 3.49
pKd (MPDZ_12, O75970; [1]): below the threshold
pKd (MPP6, Q9NZW5; [1]): 3.5
pKd (NHERF2_2, Q15599; [1]): below the threshold
pKd (PARD3B_1, Q8TEW8; [1]): 3.55
pKd (PCLO, Q9Y6V0; [1]): below the threshold
pKd (PDZD7_3, Q9H5P4; [1]): 4.71
pKd (PTPN13_1, Q12923; [1]): below the threshold
pKd (SHANK1, Q9Y566; [1]): below the threshold
pKd (TJP1_2, Q07157; [1]): below the threshold

PLSPEQPTKL [TRIM50, Q86XT4]
pKd (APBA1_2, Q02410; [3]): 4.06
pKd (APBA3_1, O96018; [3]): below the threshold
pKd (CASK, O14936; [3]): below the threshold
pKd (DFNB31_1, Q9P202; [3]): below the threshold
pKd (DLG1_2, Q12959; [3]): below the threshold
pKd (DLG3_2, Q92796; [3]): below the threshold
pKd (FRMPD2_2, Q68DX3; [3]): below the threshold
pKd (FRMPD2_3, Q68DX3; [3]): below the threshold
pKd (GIPC2, Q8TF65; [3]): below the threshold
pKd (GRIP1_3, Q9Y3R0; [3]): below the threshold
pKd (GRIP1_4, Q9Y3R0; [3]): below the threshold
pKd (Inadl_4, Q8NI35; [3]): below the threshold
pKd (Inadl_6, Q8NI35; [3]): below the threshold
pKd (LAP2, Q96RT1; [3]): below the threshold
pKd (MAGI2_4, Q86UL8; [3]): below the threshold
pKd (MPDZ_12, O75970; [3]): below the threshold
pKd (MPP6, Q9NZW5; [3]): 3.63
pKd (NHERF2_2, Q15599; [3]): 3.86
pKd (PARD3B_1, Q8TEW8; [3]): 4.06
pKd (PCLO, Q9Y6V0; [3]): below the threshold
pKd (PDZD7_3, Q9H5P4; [3]): 4.04
pKd (PTPN13_1, Q12923; [3]): below the threshold
pKd (SHANK1, Q9Y566; [3]): below the threshold
pKd (TJP1_2, Q07157; [3]): below the threshold
